According to patent publication US20230272011A1 (AVACTA LIFE SCIENCES, published 2023):
Values belong to the binder of their own block, whether it stands above or below them.

Columns and labels:
human serum albumin [1] = target: T1, human serum albumin (human, UniProt P02768 25-609); assay: Octet biolayer interferometry, pH 6.0
T1 construct: mature; Bought protein; biotinylated in the Octet and HTRF assays; also called HSA; HuSA
Protocol: (§1) Biotinylated antigen was captured onto SA sensors at 1 μg/ml for 600 seconds in a buffer comprising PBS-T (0.01% Tween 20)+1% casein at either pH 6.0 or 7.4. Association was carried out for 300 seconds and dissociation for 600 seconds, and regeneration was performed using 10 mM glycine pH 1.5 (GE Healthcare) for 3×5 seconds. All steps were carried out at 1000 rpm and 25° C. Purified AFFIMER® polypeptide in two-fold serial dilutions was analyzed at a starting concentration of approximately 10× K_{D value}. Kinetics analyses were carried out using the Octet data analysis software, subtracting the reference sensor (loaded with antigen), aligning the Y-axis to baseline, and using inter-step correction to align association to dissociation. Savitzky-Golay filtering was applied and the data processed. Analysis of the data was carried out with a 1:1 model, global fit, Rₘₐₓ unlinked by sensor.
(§2) AFFIMER® polypeptides were incubated with AcTEV for 1 hour at 30° C. as recommend by the manufacturer (Invitrogen) and removal of cleaved His tag by binding NiNTA resin (Generon) and collecting the cleaved protein flow through. […] Pharmacokinetic profile of IV-injected His tag cleaved AFFIMER® protein compared to C-terminally His-tagged AFFIMER® protein was evaluated.

cynomolgus serum albumin [2] = target: T2, cynomolgus serum albumin (cynomolgus); assay: Octet biolayer interferometry, pH 6.0
T2 construct: also called CSA; cyno serum albumin
Protocol: as §1, §2

mouse serum albumin [3] = target: T3, mouse serum albumin (mouse, UniProt P07724 25-608); assay: Octet biolayer interferometry, pH 6.0
T3 construct: also called MSA
Protocol: as §1, §2

human serum albumin [4] = target: T1, human serum albumin; assay: Octet biolayer interferometry, pH 7.4
Protocol: as §1, §2

cynomolgus serum albumin [5] = target: T2, cynomolgus serum albumin; assay: Octet biolayer interferometry, pH 7.4
Protocol: as §1, §2

mouse serum albumin [6] = target: T3, mouse serum albumin; assay: Octet biolayer interferometry, pH 7.4
Protocol: as §1, §2

canine serum albumin [7] = target: T4, canine serum albumin (canine, UniProt P49822 25-608); assay: binding ELISA on coated albumin, pH 6.0, panel 'Canine SA Binding at pH 6.0'
Protocol: (§3) Briefly, ELISA was performed as follow:
(§4) Human (Sigma-Aldrich); Cynomolgus and Mouse (Abcam); Equine (Abcam); Canine (Abcam); Mouse (Sigma-Aldrich); Rabbit (Sigma-Aldrich); Porcine (Sigma-Aldrich);, and Rat (Sigma-Aldrich) serum albumin were coated overnight on 96 well plates (Corning Costar) at 1 μg/ml in PBS at the appropriate pH (pH 6.0 or 7.4). Plates were saturated using 5% Casein (Sigma-Aldrich) buffer in PBS. […] Plates were then washed and AFFIMER® proteins were detected using a biotinylated polyclonal antibody anti-Cystatin (R&D System) for 90 minutes. After washing, streptavidin-HRP (Thermo Fisher Scientific) was added and incubated for 30 minutes.

human serum albumin [8] = target: T1, human serum albumin; assay: BLI (Octet), biotinylated albumin on SA sensor, pH 6.0
Protocol: as §1

cynomolgus serum albumin [9] = target: T2, cynomolgus serum albumin; assay: as above
Protocol: as §1

mouse serum albumin [10] = target: T3, mouse serum albumin; assay: as above
Protocol: as §1

human serum albumin [11] = target: T1, human serum albumin; assay: BLI (Octet), biotinylated albumin on SA sensor, pH 7.4
Protocol: as §1

cynomolgus serum albumin [12] = target: T2, cynomolgus serum albumin; assay: as above
Protocol: as §1

mouse serum albumin [13] = target: T3, mouse serum albumin; assay: as above
Protocol: as §1

human serum albumin [14] = target: T1, human serum albumin; assay: Octet biolayer interferometry, biotinylated albumin on SA sensors, pH 6.0
Protocol: as §1

cynomolgus serum albumin [15] = target: T2, cynomolgus serum albumin; assay: as above
Protocol: as §1

mouse serum albumin [16] = target: T3, mouse serum albumin; assay: as above
Protocol: as §1

human serum albumin [17] = target: T1, human serum albumin; assay: binding ELISA on coated albumin, pH 6.0, panel 'HSA Binding at pH 6.0'
Protocol: as §3, §4

human serum albumin [18] = target: T1, human serum albumin; assay: binding ELISA, coated albumin, pH 7.4
Protocol: as §3, §4

rabbit serum albumin = rabbit serum albumin (rabbit, UniProt P49065 25-608); assay: binding ELISA, coated albumin, pH 7.4
Protocol: as §3, §4

cynomolgus serum albumin [19] = target: T2, cynomolgus serum albumin; assay: binding ELISA, coated albumin, pH 7.4
Protocol: as §3, §4

rat serum albumin = rat serum albumin (rat, UniProt P02770 25-608); assay: binding ELISA, coated albumin, pH 7.4
Protocol: as §3, §4

porcine serum albumin = porcine serum albumin (porcine, UniProt P08835 25-607); assay: binding ELISA, coated albumin, pH 7.4
Protocol: as §3, §4

equine serum albumin = equine serum albumin (equine, UniProt P35747 25-607); assay: binding ELISA, coated albumin, pH 7.4
Protocol: as §3, §4

canine serum albumin [20] = target: T4, canine serum albumin; assay: binding ELISA, coated albumin, pH 7.4
Protocol: as §3, §4

human serum albumin [21] = target: T1, human serum albumin; assay: SPR (Biacore T200), albumin amine-coupled to CM5, Affimer analyte, pH 7.4
Protocol: (§5) Affinities for mouse, human, and cynomolgus serum were also measured at pH 7.4 for four (4) AFFIMER® binders using surface plasmon resonance (SPR) (FIG. 5, Table 5). […] A concentration titration of AFFIMER® monomers was run as analyte at a flow rate of 30 μl/min or 60 μl/min. Fc2-1, Fc3-1 and Fc4-1 kinetic data was blank subtracted and fit to a 1:1 Langmuir binding model (BIAcore Evalution software; GE) to calculate KD values.

cynomolgus serum albumin [22] = target: T2, cynomolgus serum albumin; assay: as above
Protocol: as §5

mouse serum albumin [23] = target: T3, mouse serum albumin; assay: as above
Protocol: as §5

human serum albumin [24] = target: T1, human serum albumin; assay: Octet biolayer interferometry, biotinylated albumin on SA sensors, pH 7.4
Protocol: as §1

cynomolgus serum albumin [25] = target: T2, cynomolgus serum albumin; assay: as above
Protocol: as §1

mouse serum albumin [26] = target: T3, mouse serum albumin; assay: as above
Protocol: as §1

mPD-L1 = target: T5, mPD-L1 (mouse, UniProt Q9EP73 19-238, limits assumed); assay: competition ELISA: mPD-L1 pre-incubated with the AFFIMER polypeptide and added to coated mPD-1; blocked ligand mPD-1
T5 construct: May be the same reagent as the mouse PD-L1-Fc of the Biacore run
Protocol: Briefly, PD-1 was coated overnight on the plate at 1 μg/ml in carbonate buffer. Then plates were saturated using 5% Casein/PBS buffer. […] After saturation, the mix was added to the plates and incubated for 90 minutes. Plates were then washed and the detection polyclonal antibody, biotinylated anti-PD-L1, was added. After washing the plates, streptavidin-HRP was added for 30 minutes. After a final wash, development of the reaction was performed using TMB (Pierce) and the plates were read using a plate reader at 450 nm (FIG. 26C).

human serum albumin [27] = target: T1, human serum albumin; assay: binding ELISA on coated HSA, pH 7.4
Protocol: (§6) After saturation with 5% PBS Casein pH 7.5, plates were washed and a dilution of AFFIMER® trimers or controls were incubated on the plate for 90 minutes. Plates were then washed, and a biotinylated polyclonal antibody anti-cystatin A (R&D Systems) was added for 1 hour. Plates were washed and AFFIMER® ILFs were detected using streptavidin-HRP. After a last washing step, TMB was added for the development of the experiment, and the plates were read at 450 nm.

[28] = target: T6, human PD-L1-Fc (R&D Systems) chimeric protein (human, UniProt Q9NZQ7 19-239); assay: Biacore single cycle kinetics on human PD-L1 Fc
T6 construct: Bought reagent; also called rhPD-L1-Fc; huPD-L1; Fc part of the bought chimera not given, not described

mouse serum albumin [29] = target: T3, mouse serum albumin; assay: binding ELISA on coated MSA, pH 7.4
Protocol: as §6

mouse serum albumin [30] = target: T3, mouse serum albumin; assay: Biacore, immobilised MSA, pH 6.0
Source text: (§7) […] Fc2-1, Fc3-1 and Fc4-1 kinetic data was blank subtracted and fit to a 1:1 Langmuir binding model (BIAcore Evalution software; GE) to calculate KD values.

human serum albumin [31] = target: T1, human serum albumin; assay: Biacore, immobilised HSA, running buffer pH 6.0
Source text: as §7

human serum albumin [32] = target: T1, human serum albumin; assay: Biacore, immobilised HSA, running buffer pH 7.4
Protocol: as §5

T6 sequence (Q9NZQ7 19-239, change not shown): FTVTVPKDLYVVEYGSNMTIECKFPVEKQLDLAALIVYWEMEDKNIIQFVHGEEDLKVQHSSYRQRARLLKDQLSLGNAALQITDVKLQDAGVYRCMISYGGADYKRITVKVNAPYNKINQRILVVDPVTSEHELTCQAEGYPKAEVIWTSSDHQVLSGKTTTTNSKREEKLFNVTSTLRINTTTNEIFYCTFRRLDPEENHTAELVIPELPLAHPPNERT
T2 sequence (A2V9Z4 25-608): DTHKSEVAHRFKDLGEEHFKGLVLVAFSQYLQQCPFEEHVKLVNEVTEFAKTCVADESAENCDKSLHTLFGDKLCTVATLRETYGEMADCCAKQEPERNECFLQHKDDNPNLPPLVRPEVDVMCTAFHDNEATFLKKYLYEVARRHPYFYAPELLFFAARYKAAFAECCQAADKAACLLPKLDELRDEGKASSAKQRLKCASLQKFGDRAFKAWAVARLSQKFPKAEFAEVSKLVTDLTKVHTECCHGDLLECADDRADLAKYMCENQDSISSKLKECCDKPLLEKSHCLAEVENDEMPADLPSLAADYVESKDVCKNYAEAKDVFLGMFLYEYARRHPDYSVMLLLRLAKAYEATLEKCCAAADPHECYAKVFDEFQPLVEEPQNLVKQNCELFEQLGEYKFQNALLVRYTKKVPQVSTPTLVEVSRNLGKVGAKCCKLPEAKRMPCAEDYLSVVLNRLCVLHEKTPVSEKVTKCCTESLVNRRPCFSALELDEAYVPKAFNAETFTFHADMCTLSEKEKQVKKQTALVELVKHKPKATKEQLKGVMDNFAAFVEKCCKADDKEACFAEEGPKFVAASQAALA
T3 sequence (P07724 25-608 limits assumed): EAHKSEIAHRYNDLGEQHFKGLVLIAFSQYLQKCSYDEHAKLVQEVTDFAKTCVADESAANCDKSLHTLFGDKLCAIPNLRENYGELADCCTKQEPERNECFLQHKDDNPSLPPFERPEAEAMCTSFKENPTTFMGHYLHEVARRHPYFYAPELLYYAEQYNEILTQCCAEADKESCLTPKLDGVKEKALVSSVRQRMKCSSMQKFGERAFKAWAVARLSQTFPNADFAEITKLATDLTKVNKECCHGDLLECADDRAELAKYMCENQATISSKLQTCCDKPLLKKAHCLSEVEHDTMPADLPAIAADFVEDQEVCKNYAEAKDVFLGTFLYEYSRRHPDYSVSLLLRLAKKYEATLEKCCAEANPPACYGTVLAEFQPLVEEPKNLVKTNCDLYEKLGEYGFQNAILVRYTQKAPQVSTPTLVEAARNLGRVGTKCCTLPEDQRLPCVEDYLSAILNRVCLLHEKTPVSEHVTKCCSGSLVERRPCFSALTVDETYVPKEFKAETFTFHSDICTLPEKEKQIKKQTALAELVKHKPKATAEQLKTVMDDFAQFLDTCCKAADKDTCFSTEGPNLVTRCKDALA
T4 sequence (P49822 25-608 limits assumed): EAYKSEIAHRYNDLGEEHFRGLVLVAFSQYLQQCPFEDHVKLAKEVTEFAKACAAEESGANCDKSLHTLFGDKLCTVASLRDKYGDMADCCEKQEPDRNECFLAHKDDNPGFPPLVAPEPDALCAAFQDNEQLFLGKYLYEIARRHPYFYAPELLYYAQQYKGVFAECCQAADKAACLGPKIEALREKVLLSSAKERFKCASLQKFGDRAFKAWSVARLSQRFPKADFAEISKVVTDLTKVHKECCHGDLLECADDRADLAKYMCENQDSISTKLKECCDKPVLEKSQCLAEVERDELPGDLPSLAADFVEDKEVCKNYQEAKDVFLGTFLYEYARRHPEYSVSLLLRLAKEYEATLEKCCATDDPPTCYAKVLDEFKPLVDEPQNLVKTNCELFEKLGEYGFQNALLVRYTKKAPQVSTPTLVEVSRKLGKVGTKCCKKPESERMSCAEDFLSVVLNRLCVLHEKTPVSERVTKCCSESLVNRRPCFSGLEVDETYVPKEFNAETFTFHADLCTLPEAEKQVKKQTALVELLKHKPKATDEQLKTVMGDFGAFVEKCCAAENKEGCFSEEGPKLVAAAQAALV
Chain of rat serum albumin (P02770 25-608 limits assumed): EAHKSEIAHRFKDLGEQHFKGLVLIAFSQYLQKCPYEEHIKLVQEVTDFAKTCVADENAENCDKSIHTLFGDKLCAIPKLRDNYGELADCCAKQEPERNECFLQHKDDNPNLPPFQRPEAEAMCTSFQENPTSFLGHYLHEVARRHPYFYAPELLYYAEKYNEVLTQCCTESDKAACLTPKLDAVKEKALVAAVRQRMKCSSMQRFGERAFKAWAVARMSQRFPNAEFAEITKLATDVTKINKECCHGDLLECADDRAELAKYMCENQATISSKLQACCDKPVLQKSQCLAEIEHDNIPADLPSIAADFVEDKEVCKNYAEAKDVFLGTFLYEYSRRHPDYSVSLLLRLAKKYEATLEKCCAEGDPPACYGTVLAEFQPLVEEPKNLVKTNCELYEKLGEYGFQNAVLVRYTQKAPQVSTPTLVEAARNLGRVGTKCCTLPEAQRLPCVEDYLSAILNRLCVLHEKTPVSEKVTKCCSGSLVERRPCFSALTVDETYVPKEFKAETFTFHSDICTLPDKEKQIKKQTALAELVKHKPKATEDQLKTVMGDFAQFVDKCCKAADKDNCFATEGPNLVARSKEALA
Chain of porcine serum albumin (P08835 25-607 limits assumed): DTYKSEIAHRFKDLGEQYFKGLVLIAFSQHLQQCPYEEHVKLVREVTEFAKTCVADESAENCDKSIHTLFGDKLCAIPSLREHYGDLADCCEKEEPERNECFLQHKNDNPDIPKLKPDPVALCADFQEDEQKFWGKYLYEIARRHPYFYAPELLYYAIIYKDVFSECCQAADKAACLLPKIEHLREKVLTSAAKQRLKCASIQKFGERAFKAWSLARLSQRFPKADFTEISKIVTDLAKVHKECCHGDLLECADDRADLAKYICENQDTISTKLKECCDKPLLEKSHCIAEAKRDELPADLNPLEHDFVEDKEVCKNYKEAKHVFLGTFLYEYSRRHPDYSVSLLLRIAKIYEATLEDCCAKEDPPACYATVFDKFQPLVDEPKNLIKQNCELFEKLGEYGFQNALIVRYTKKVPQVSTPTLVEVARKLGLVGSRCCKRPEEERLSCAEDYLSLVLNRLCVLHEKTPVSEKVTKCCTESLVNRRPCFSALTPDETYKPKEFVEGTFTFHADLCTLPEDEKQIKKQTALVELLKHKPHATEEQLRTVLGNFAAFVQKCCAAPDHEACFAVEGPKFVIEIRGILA
T5 sequence (Q9EP73 19-238 limits assumed): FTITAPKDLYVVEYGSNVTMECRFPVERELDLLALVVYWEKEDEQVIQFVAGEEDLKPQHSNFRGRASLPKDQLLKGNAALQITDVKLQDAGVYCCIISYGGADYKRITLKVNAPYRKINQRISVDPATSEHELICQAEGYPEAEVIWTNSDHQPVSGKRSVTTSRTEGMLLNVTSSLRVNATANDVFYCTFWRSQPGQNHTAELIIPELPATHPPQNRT
Chain of rabbit serum albumin (P49065 25-608 limits assumed): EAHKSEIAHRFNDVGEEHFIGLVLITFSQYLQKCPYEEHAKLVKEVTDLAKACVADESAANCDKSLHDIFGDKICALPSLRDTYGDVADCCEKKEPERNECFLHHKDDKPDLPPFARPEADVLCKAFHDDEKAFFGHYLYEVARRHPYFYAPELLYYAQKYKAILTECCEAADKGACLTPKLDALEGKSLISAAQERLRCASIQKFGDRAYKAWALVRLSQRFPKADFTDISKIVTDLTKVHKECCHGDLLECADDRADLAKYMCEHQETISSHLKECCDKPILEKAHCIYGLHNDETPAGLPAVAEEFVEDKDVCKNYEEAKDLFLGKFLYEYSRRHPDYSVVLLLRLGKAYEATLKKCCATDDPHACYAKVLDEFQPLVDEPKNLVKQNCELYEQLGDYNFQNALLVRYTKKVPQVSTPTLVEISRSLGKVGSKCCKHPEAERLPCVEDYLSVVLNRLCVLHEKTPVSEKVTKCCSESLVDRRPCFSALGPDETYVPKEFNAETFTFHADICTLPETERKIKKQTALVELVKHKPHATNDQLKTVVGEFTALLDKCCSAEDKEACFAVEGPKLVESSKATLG
Chain of equine serum albumin (P35747 25-607 limits assumed): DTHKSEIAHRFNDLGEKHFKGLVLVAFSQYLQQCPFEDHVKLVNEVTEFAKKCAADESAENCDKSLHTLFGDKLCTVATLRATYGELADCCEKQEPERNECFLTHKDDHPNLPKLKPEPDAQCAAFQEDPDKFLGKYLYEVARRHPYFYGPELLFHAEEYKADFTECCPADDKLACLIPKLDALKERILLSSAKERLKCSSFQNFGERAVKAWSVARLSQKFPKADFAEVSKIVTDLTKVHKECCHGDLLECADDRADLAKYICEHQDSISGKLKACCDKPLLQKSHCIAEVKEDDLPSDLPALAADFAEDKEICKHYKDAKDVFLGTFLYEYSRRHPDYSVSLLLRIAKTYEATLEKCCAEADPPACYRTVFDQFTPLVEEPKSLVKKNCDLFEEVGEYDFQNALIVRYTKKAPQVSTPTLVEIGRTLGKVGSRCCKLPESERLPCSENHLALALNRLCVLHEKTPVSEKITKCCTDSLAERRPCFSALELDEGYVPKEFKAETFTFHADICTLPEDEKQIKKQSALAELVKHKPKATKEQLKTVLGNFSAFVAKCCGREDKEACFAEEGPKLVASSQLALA

- Kd (human serum albumin [1]): 4.71 nM
- Kd (cynomolgus serum albumin [2]): 189 nM
- Kd (mouse serum albumin [3]): 38.1 nM
- Kd (human serum albumin [4]): 7.65 nM
- Kd (cynomolgus serum albumin [5]): 280 nM
- Kd (mouse serum albumin [6]): 104 nM
B1: HSA-41, C-terminal 6x His tag cleaved (designed binder)
chain: MIPRGLSEAKPATPEIQEIVDKVKPQLEEKTNETYGKLEAVQYKTQVLANFFQRRWPGSTNYYIKVRAGDNKYMHLKVFNGPWKFRNTDRGADRVLTGYQVDKNKDDELTGFEQKLISEEDL
notes: also called His tag cleaved AFFIMER protein; C-terminally His tag cleaved AFFIMER lead clone

- EC50 (read off the curve) (canine serum albumin [7]): ~200 nM
- Kd (human serum albumin [8]): 132 nM
- Kd (cynomolgus serum albumin [9]): 1140 nM
- Kd (mouse serum albumin [10]): 435 nM
- Kd (human serum albumin [11]): 136 nM
- Kd (cynomolgus serum albumin [12]): 2600 nM
- Kd (mouse serum albumin [13]): 244 nM
- koff (human serum albumin [14]): 0.00175 s⁻¹
- kon (human serum albumin [14]): 15400 M⁻¹ s⁻¹
- koff (cynomolgus serum albumin [15]): 0.0123 s⁻¹
- kon (cynomolgus serum albumin [15]): 10800 M⁻¹ s⁻¹
- koff (mouse serum albumin [16]): 0.0874 s⁻¹
- kon (mouse serum albumin [16]): 200000 M⁻¹ s⁻¹
- EC50 (read off the curve) (human serum albumin [17]): ~400 nM
- EC50 (human serum albumin [18]): 687 nM
- EC50 (rabbit serum albumin): 863 nM
- EC50 (cynomolgus serum albumin [19]): 447 nM
- EC50 (rat serum albumin): 9.73 nM
- EC50 (porcine serum albumin): 268 nM
- EC50 (equine serum albumin): 662 nM
- EC50 (canine serum albumin [20]): 383 nM
- Kd (human serum albumin [21]): 200 nM
- koff (human serum albumin [21]): 0.00451 s⁻¹
- kon (human serum albumin [21]): 22500 M⁻¹ s⁻¹
- Kd (cynomolgus serum albumin [22]): 1510 nM
- koff (cynomolgus serum albumin [22]): 0.16 s⁻¹
- kon (cynomolgus serum albumin [22]): 106000 M⁻¹ s⁻¹
- Kd (mouse serum albumin [23]): 207 nM
- koff (mouse serum albumin [23]): 0.15 s⁻¹
- kon (mouse serum albumin [23]): 726000 M⁻¹ s⁻¹
- koff (human serum albumin [24]): 0.00257 s⁻¹
- kon (human serum albumin [24]): 18900 M⁻¹ s⁻¹
- koff (cynomolgus serum albumin [25]): 0.0505 s⁻¹
- kon (mouse serum albumin [26]): 215000 M⁻¹ s⁻¹
B2: HSA-36 (designed binder)
chain: MIPRGLSEAKPATPEIQEIVDKVKPQLEEKTNETYGKLEAVQYKTQVLAGHYARYWPGSTNYYIKVRAGDNKYMHLKVFNGPWAQKSKVHQADRVLTGYQVDKNKDDELTGFHHHHHH

- IC50 (mPD-L1): 112 nM
B3: AVA04-182 (designed binder)
chain: MIPRGLSEAKPATPEIQEIVDKVKPQLEEKTNETYGKLEAVQYKTQVLAFALPEFEYMSTNYYIKVRAGDNKYMHLKVFNGPPMIRRKNEVADRVLTGYQVDKNKDDELTGF
notes: also called its control

- EC50 (human serum albumin [27]): 5.7 nM
- Kd [28]: 0.558 nM
- koff [28]: 0.000331 s⁻¹
- kon [28]: 594000 M⁻¹ s⁻¹
- EC50 (mouse serum albumin [29]): 134 nM
- Kd (mouse serum albumin [30]): 108 nM
- koff (mouse serum albumin [30]): 0.0326 s⁻¹
- kon (mouse serum albumin [30]): 301000 M⁻¹ s⁻¹
- Kd (human serum albumin [31]): 67.8 nM
- koff (human serum albumin [31]): 0.00339 s⁻¹
- kon (human serum albumin [31]): 50100 M⁻¹ s⁻¹
- Kd (human serum albumin [32]): 661 nM
- koff (human serum albumin [32]): 0.00846 s⁻¹
- kon (human serum albumin [32]): 12800 M⁻¹ s⁻¹
B4: AVA04-251 XT60 (designed binder)
chain: MIPRGLSEAKPATPEIQEIVDKVKPQLEEKTNETYGKLEAVQYKTQVLAREGRQDWVLSTNYYIKVRAGDNKYMHLKVFNGPWVPFPHQQLADRVLTGYQVDKNKDDELTGFAEAAAKEAAAKEAAAKEAAAKEAAAKEAAAKMIPRGLSEAKPATPEIQEIVDKVKPQLEEKTNETYGKLEAVQYKTQVLAREGRQDWVLSTNYYIKVRAGDNKYMHLKVFNGPWVPFPHQQLADRVLTGYQVDKNKDDELTGFAEAAAKEAAAKEAAAKEAAAKEAAAKEAAAKMIPRGLSEAKPATPEIQEIVDKVKPQLEEKTNETYGKLEAVQYKTQVLADWWQAKWPHSTNYYIKVRAGDNKYMHLKVFNGPYKVHQSSGGADRVLTGYQVDKNKDDELTGFHHHHHH
